# US20190195891A1, “DIAGNOSTIC AND THERAPEUTIC USES OF EXOSOMES” (Yeda Research and Development Co. Ltd., priority 2016, published 2019)
# Entries after “also recorded” stand apart in the source; their conditions may differ.
# Legend:
# HepG2 cells [1] = assay: Fate of EGFR after EGF binding in control and MLKL knocked-down HepG2 cells (immunocytochemistry); format: cell-based, human; details: 2 hours after ligand binding; for cellular levels of the EGFR: HepG2 cells after EGF application; for difference in EGFR between cells expressing MLKL and cells deficient of it: control vs MLKL knocked-down HepG2 cells
# Description: (§1) Bafilomycin A1 from Santa Cruz Biotechnology was applied to the cells at 100 nM. Chloroquine was applied at 25 μM, 4-hydroxytamoxifen was applied at 1 μM, and ionomycin was applied at 1 μM, ultra pure LPS, applied at 1 μg/ml (all from Sigma). Human ECF from Biological industries, mouse EGF from ProSpec and human TNF from Ybdy were biotinylated using an EZ-Link biotinylation kit (Thermo Fisher Scientific) and then applied to the cells at 5 μg/ml or injected intravenously into mice at a dose of 10 μg/mouse. Bovine serum albumin (BSA), tagged with gold particles (BSA-gold, CMC Utrecht), was applied to the cells at an optical density of 2. To trigger necroptosis, TNF (1000 units/ml) was applied together with the bivalentIAP (inhibitor of apoptosis protein) antagonist BV6 and the caspase inhibitor z-VAD-fmk, both from WuXu App Tec, at concentrations of 1 μM and 20 μM respectively. IL-1β ELISA kit was from eBiosicne.
# Prior to ligand treatment the cells were incubated for 12 hours in serum-free medium. Biotinylated EGF and TNF were applied to the cells for 30 minutes on ice in CO2-independent medium (Thermo Fisher Scientific), and this was followed by rinsing and rther incubation without those ligands at 37° C. For western blot analysis, cellular proteins were extracted at the indicated times in RIPA buffer (20 mM Tris-HCl pH 7.5, 150 mM NaCl, 1 mM EDTA, 1 mM EGTA, 1% NP-40, 0.5% sodium deoxycholate, 0.1% sodium dodecyl sulfate (SDS), protease and phosphatase inhibitors). For immunofluorescence microscopy, cells were fixed in 4% paraformaldehyde (PFA) in PBS and then stained with fluorescence-conjugated antibodies.
# Immunostaining was performed as described previously [Yoon S. et al., Cell death and differentiation (2016) 23, 253-260]. Briefly, cells fixed with 4% PFA in PBS were permeabilized by incubation in methanol at −20° C. for 10 minutes, followed by incubation in blocking buffer (20% normal goat serum (NGS), 2% BSA, 0.3 M glycine and 0.1% Tween-20 in PBS, pH 7.2). Following incubation with the indicated antibodies, images were obtained using an Olympus IX 81 confocal microscope (Olympus Imaging), with a UPLSAPO 60×1.35 NA oil objective and FluoView FV1000 software (Olympus Imaging). Images were processed using Imaris software from Bitplane.
# HT29 cells = assay: Exosome generation by HT29 cells after triggering necroptosis (Nanoparticle Tracking Analysis, western blot); format: cell-based, human; details: HT-29 cells treated with TBZ
# Description: as §1, with “To trigger necroptosis, TNF (1000 units/ml) was applied together with the bivalentIAP (inhibitor of apoptosis protein) antagonist BV6 and the caspase inhibitor z-VAD-fmk, both from WuXu App Tec, at concentrations of 1 μM and 20 μM respectively. IL-1β ELISA kit was from eBiosicne.” left out
# (§2) In all experiments aimed at assessing the generation of exosomes by cultured cells, the FBS supplementing the growth medium was pre-depleted of bovine exosomes by centrifugation at […] for 18 hours. […] The stimuli whose effect on exosome generation was to be assessed were applied for the indicated times towards the end of this 12 hour period. […] Size spectra and amounts of the particles in the exosome preparations were determined by Nanoparticle Tracking Analysis using the NanoSight NS300 device (Malvern Instruments) according to the manufacturer's instructions.
# Cells and liver samples were extracted in RIPA and in 1% SDS, respectively. […] Band intensity was quantified using the ImageJ software.
# HepG2 cells [2] = assay: Exosome generation by HepG2 cells, ionomycin treatment; format: cell-based, human
# Description: as §1, with “To trigger necroptosis, TNF (1000 units/ml) was applied together with the bivalentIAP (inhibitor of apoptosis protein) antagonist BV6 and the caspase inhibitor z-VAD-fmk, both from WuXu App Tec, at concentrations of 1 μM and 20 μM respectively. IL-1β ELISA kit was from eBiosicne.” left out
# as §2
# MEFs = assay: Exosome generation by MEFs, ionomycin treatment; format: cell-based, mouse
# Description: as §1, with “To trigger necroptosis, TNF (1000 units/ml) was applied together with the bivalentIAP (inhibitor of apoptosis protein) antagonist BV6 and the caspase inhibitor z-VAD-fmk, both from WuXu App Tec, at concentrations of 1 μM and 20 μM respectively. IL-1β ELISA kit was from eBiosicne.” left out
# as §2
# [3] = test system: MLKL knocked-down HepG2 cells; assay: Levels of EGF and EGFR in MLKL knocked-down HepG2 cells inducibly expressing MLKL mutants (western blot); format: cell-based, human; details: EGF applied 7 hours after induction
# [4] = test system: MLKL knocked-down HT-29 cells; details: cited from earlier work; for death in HT29 cells on inducible expression: Yoon et al. (2016); for induction of necroptosis/death by TBZ: as previously reported (Sun et al. 2012; Quarato et al. 2016)
# [5] = test system: MLKL knocked-down HT-29 cells; assay: Yield of exosomes in MLKL knocked-down HT-29 cells inducibly expressing MLKL mutants; format: cell-based, human; details: inducible expression, compared to wild-type MLKL
# From the text: The various mutants of MLKL were expressed inducibly in HT-29 cells in which the endogenous MLKL mRNA was constitutively knocked down. Expression was achieved by lentiviral infection with the GEV16/pF5x UAS system as described previously [Dunning C J et al. The EMBO Journal (2007) 26, 3227-3237, doi:10.1038/sj.emboj.7601748].
# In all experiments aimed at assessing the generation of exosomes by cultured cells, the FBS supplementing the growth medium was pre-depleted of bovine exosomes by centrifugation at […] for 18 hours. Except where otherwise indicated, the exosomes were collected after 12 hours of incubation. The stimuli whose effect on exosome generation was to be assessed were applied for the indicated times towards the end of this 12 hour period. Unless otherwise indicated, TBZ was applied for 4 hours. For recovery of exosomes from the mice, mouse blood samples were collected in MiniCollect®TUBEs (Greiner Bio-One) and centrifuged at 3000 rpm for 15 minutes. Mouse plasma and cell-growth media were passed through 0.2 μm filters and centrifuged at […] for 90 minutes, after which the pellet was suspended in phosphate-buffered saline (PBS) and re-sedimented by centrifugation as above. Size spectra and amounts of the particles in the exosome preparations were determined by Nanoparticle Tracking Analysis using the NanoSight NS300 device (Malvern Instruments) according to the manufacturer's instructions.
# HepG2 cells [6] = assay: Cell death of HepG2 cells inducibly expressing MLKL mutants; format: cell-based, human; details: inducible expression in HepG2 cells
molecule,measurement,setting,value
CO/C1=C\C(C)=C\[C@@H](C)[C@@H](O)[C@@H](C)C/C(C)=C/C=C/[C@H](OC)[C@@H]([C@@H](C)[C@@H](O)[C@H](C)[C@@]2(O)C[C@@H](O)[C@H](C)[C@@H](C(C)C)O2)OC1=O [bafilomycin A1],cellular levels of the EGFR,HepG2 cells [1],withhold the decrease
same,difference in EGFR between cells expressing MLKL and cells deficient of it,HepG2 cells [1],obliterate the difference
same,difference in EGFR between cells expressing MLKL and cells deficient of it,HepG2 cells [1]; listed as Baf A1,equal accumulation of EGFR
CN1C(=O)C(Cc2c[nH]c3ccccc23)NC1=S (centres unmarked) [necrostatin-1],effect on enhancement of exosome generation by TBZ,HT29 cells,block this enhancement; also recorded: reversal
CCN(CC)CCCC(C)Nc1ccnc2cc(Cl)ccc12 (centres unmarked) [chloroquine],cellular levels of the EGFR,HepG2 cells [1],withhold the decrease
same,difference in EGFR between cells expressing MLKL and cells deficient of it,HepG2 cells [1],obliterate the difference
same,difference in EGFR between cells expressing MLKL and cells deficient of it,HepG2 cells [1]; listed as CQ,equal accumulation of EGFR
C[C@H](CCC(=O)O)C[C@H](C)C[C@H](C)C(=O)/C=C(\O)[C@H](C)C[C@H](C)C/C=C/[C@@H](C)[C@@H](O)[C@@H](C)[C@@H](O)C[C@@H]1CC[C@@](C)([C@H]2CC[C@@](C)([C@@H](C)O)O2)O1 [ionomycin],generation of exosomes,HepG2 cells [2]; HepG2 cells,enhanced generation of exosomes
same,generation of exosomes,HepG2 cells [2]; HepG2 cells deficient of MLKL,no such enhancement
same,generation of exosomes,MEFs; MEFs,enhanced generation of exosomes
same,generation of exosomes,MEFs; MEFs deficient of MLKL,no such enhancement
"T357E/S358D: MLKL with phospho-mimetic mutations of the residues that are the targets of phosphorylation by RIPK3 (protein, UniProt Q8NB16 1-471, looked up, variant T357E S358D) Mixed lineage kinase …: MENLKHIITLGQVIHKRCEEMKYCKKQCRRLGHRVLGLIKPLEMLQDQGKRSVPSEKLTTAMNRFKAALEEANGEIEKFSNRSNICRFLTASQDKILFKDVNRKLSDVWKELSLLLQVEQRMPVSPISQGASWAQEDQQDADEDRRAFQMLRRDNEKIEASLRRLEINMKEIKETLRQYLPPKCMQEIPQEQIKEIKKEQLSGSPWILLRENEVSTLYKGEYHRAPVAIKVFKKLQAGSIAIVRQTFNKEIKTMKKFESPNILRIFGICIDETVTPPQFSIVMEYCELGTLRELLDREKDLTLGKRMVLVLGAARGLYRLHHSEAPELHGKIRSSNFLVTQGYQVKLAGFELRKTQEDMSLGTTREKTDRVKSTAYLSPQELEDVFYQYDVKSEIYSFGIVLWEIATGDIPFQGCNSEKIRKLVAVKRQQEPLGEDCPSELREIIDECRAHDPSVRPSVDEILKKLSTFSK",intracellular degradation of EGF and EGFR following uptake,[3],facilitated
same,death in HT29 cells on inducible expression,[4],triggers death
same,generation of exosomes,[5],levels higher than in cells expressing the wild type protein
same,death of HepG2 cells within the time of the test,HepG2 cells [6],no death
"K230M/Q356A: MLKL with mutations within the ATP-binding pocket imposing the conformational change attained after phosphorylation (protein, UniProt Q8NB16 1-471, looked up, variant K230M Q356A) Mixed lineage kinase …: MENLKHIITLGQVIHKRCEEMKYCKKQCRRLGHRVLGLIKPLEMLQDQGKRSVPSEKLTTAMNRFKAALEEANGEIEKFSNRSNICRFLTASQDKILFKDVNRKLSDVWKELSLLLQVEQRMPVSPISQGASWAQEDQQDADEDRRAFQMLRRDNEKIEASLRRLEINMKEIKETLRQYLPPKCMQEIPQEQIKEIKKEQLSGSPWILLRENEVSTLYKGEYHRAPVAIMVFKKLQAGSIAIVRQTFNKEIKTMKKFESPNILRIFGICIDETVTPPQFSIVMEYCELGTLRELLDREKDLTLGKRMVLVLGAARGLYRLHHSEAPELHGKIRSSNFLVTQGYQVKLAGFELRKTATSMSLGTTREKTDRVKSTAYLSPQELEDVFYQYDVKSEIYSFGIVLWEIATGDIPFQGCNSEKIRKLVAVKRQQEPLGEDCPSELREIIDECRAHDPSVRPSVDEILKKLSTFSK",intracellular degradation of EGF and EGFR following uptake,[3],facilitated
same,death in HT29 cells on inducible expression,[4],triggers death
same,generation of exosomes,[5],levels higher than in cells expressing the wild type protein
same,death of HepG2 cells within the time of the test,HepG2 cells [6],about 1%
"T357A/S358A: MLKL with the RIPK3 targeted residues replaced with alanine (protein, UniProt Q8NB16 1-471, looked up, variant T357A S358A) Mixed lineage kinase …: MENLKHIITLGQVIHKRCEEMKYCKKQCRRLGHRVLGLIKPLEMLQDQGKRSVPSEKLTTAMNRFKAALEEANGEIEKFSNRSNICRFLTASQDKILFKDVNRKLSDVWKELSLLLQVEQRMPVSPISQGASWAQEDQQDADEDRRAFQMLRRDNEKIEASLRRLEINMKEIKETLRQYLPPKCMQEIPQEQIKEIKKEQLSGSPWILLRENEVSTLYKGEYHRAPVAIKVFKKLQAGSIAIVRQTFNKEIKTMKKFESPNILRIFGICIDETVTPPQFSIVMEYCELGTLRELLDREKDLTLGKRMVLVLGAARGLYRLHHSEAPELHGKIRSSNFLVTQGYQVKLAGFELRKTQAAMSLGTTREKTDRVKSTAYLSPQELEDVFYQYDVKSEIYSFGIVLWEIATGDIPFQGCNSEKIRKLVAVKRQQEPLGEDCPSELREIIDECRAHDPSVRPSVDEILKKLSTFSK",induction of necroptosis/death by TBZ,[4],compromised
same,generation of exosomes,[5],compromised
"5A: MLKL in which Lys5, Lys16 Arg17, and Lys50 Arg51 were replaced with alanine (protein, UniProt Q8NB16 1-471, looked up, variant K5A K16A R17A K50A R51A) Mixed lineage kinase …: MENLAHIITLGQVIHAACEEMKYCKKQCRRLGHRVLGLIKPLEMLQDQGAASVPSEKLTTAMNRFKAALEEANGEIEKFSNRSNICRFLTASQDKILFKDVNRKLSDVWKELSLLLQVEQRMPVSPISQGASWAQEDQQDADEDRRAFQMLRRDNEKIEASLRRLEINMKEIKETLRQYLPPKCMQEIPQEQIKEIKKEQLSGSPWILLRENEVSTLYKGEYHRAPVAIKVFKKLQAGSIAIVRQTFNKEIKTMKKFESPNILRIFGICIDETVTPPQFSIVMEYCELGTLRELLDREKDLTLGKRMVLVLGAARGLYRLHHSEAPELHGKIRSSNFLVTQGYQVKLAGFELRKTQTSMSLGTTREKTDRVKSTAYLSPQELEDVFYQYDVKSEIYSFGIVLWEIATGDIPFQGCNSEKIRKLVAVKRQQEPLGEDCPSELREIIDECRAHDPSVRPSVDEILKKLSTFSK",induction of necroptosis/death by TBZ,[4],arrest death induction
same,generation of exosomes,[5],failed to generate exosomes
